Results on 3 molecules are retold here after PMC7641127 (2020).

No end group written: not given here.

T1: recombinant MCL1 (human, UniProt Q07820 1-350)
T1 chain: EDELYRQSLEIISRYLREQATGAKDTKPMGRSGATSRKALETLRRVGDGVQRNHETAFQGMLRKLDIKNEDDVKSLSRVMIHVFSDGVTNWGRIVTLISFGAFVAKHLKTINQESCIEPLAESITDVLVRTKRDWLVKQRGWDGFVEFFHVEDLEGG

The assay has as its target T1, recombinant MCL1. The assay is described as follows: FP.
Regarding DEDTYYLQVRGRENFEILMKLKESLELMELV-NH2 [p73TD-derived peptide β1α1], the IC50 turned out to be 1090 nM.

For RENFEILMKLKESLELMELVPQPLVDSYRQQQQLLQR [p73TD-derived peptide α1α2], the IC50 turned out to be 882 nM. As for RENFEILMKLKESLELMELV [p73TD-derived peptide α1], the figure is 2630 nM.
